In patent US20220056140A1 (INVECTYS, published 2022):

Legend:
[1] = molecular target: HLA-G6 recombinant protein (without β2M association) (human, UniProt P17693 25-227); assay: flow cytometry titration on HLA-G6 coated Bioplex beads
Description: (§1) The binding detection was carried out by flow cytometry using a PE-conjugated goat anti-mouse antibody. […] Measurements were performed in triplicate (n=3); error bars indicate SD.
(§2) Flow cytometry analyses were performed using LSR FORTESSA (Beckton Dickinson, Le Pont-de-Claix, France); data were analyzed with FlowJo X software (Tree star, Ashland, USA).

[2] = molecular target: T1, HLA-G5 recombinant protein (without β2M association) (human, UniProt P17693-5 25-319); assay: flow cytometry titration on β2M-free HLA-G5 coated Bioplex beads
T1 construct: domain: α1α2α3 domains of HLA-G5; No β2M; Coupled to Bioplex beads; also called hβ2M-free HLA-G5; recombinant HLA-G5 protein
Description: as §1, §2

Control peptide = molecular target: T2, Control peptide; assay: flow cytometry on Bioplex beads coated with the mutated peptide, PE-conjugated goat anti-mouse antibody
T2 peptide: CTHHPVADAEATLRC
Description: as §1
As specificity (negative) controls, uncoupled beads or beads coated with a mutated peptide [sequence]

B1: anti-HLA-G monoclonal antibody 15E7 (antibody, V domains shown)
VH: QVQLQQPGAELVRPGSSVKLSCKASGYTFTDYWMDWVKQRPGQGLEWIGTIYPSDSSTHYNQEFKGKATMTVDKSSSTAYMHLSSLTSEDSAVYYCAREGLAGVFYFDYWGQGTTLTVSS
VL: DVLMTQIPFSLPVSLGDQASISCRSSQSIVHRSGNTYLEWYLQKPGQSPKLLIYKVSNRFSGVPDRFSGSGSGTDFTLKISRVEAEDLGVYYCFQGSHLPPTFGGTTLEIK
notes: also called 15E7 mAb; 15E7 Mab
- EC50 [1]: 0.12 µg/mL
- EC50 [2]: 0.028 µg/mL
- binding result (Control peptide): no binding (tested: 250 ng/ml)
